The values below come from the Immune Epitope Database (IEDB).

One test deals with HLA-B*15:42. Briefly: IEDB peptide-MHC binding, purified MHC/competitive/fluorescence; filed as Kd, often an IC50 or EC50 that approximates it; ≥ and ≤ were set here for values at or beyond the usual limits of such assays.
The target in the next test is HLA-A*32:15. The description is as above.
In another test the target is HLA-B*45:06. Described as above.
For another test, the target named is HLA-C*04:01. Described as above.
The next test has as its target HLA-A*32:07. The test is described as above.
The target of the next test is HLA-B*83:01. The test is described as above.
The next test deals with HLA-C*08:02. Briefly: IEDB peptide-MHC binding, purified MHC/direct/fluorescence; filed as Kd, often an IC50 or EC50 that approximates it; ≥ and ≤ were set here for values at or beyond the usual limits of such assays. The following applies: source organism: Mycobacterium tuberculosis str. Haarlem.
For another test, the target named is HLA-A*26:01. The test is described as above. The settings on record: source organism: Mycobacterium tuberculosis.
A further test concerns the target HLA-C*14:02. The description is as above.
A further test deals with HLA-C*15:02. The description is as above.
A further test addresses HLA-A*03:01. Kind of test: IEDB peptide-MHC binding, purified MHC/competitive/fluorescence; ≥ and ≤ were set here for values at or beyond the usual limits of such assays. The settings on record: source organism: Vaccinia virus Copenhagen.
A further test addresses HLA-A*11:01. The description is as above.
The target in a further test is HLA-A*01:01. The test is described as above.
For the next test, the target named is HLA-B*15:01. Described as above. The settings on record: source organism: Vaccinia virus Copenhagen.
The target in a further test is HLA-A*68:01. Kind of test: IEDB peptide-MHC binding, purified MHC/competitive/radioactivity; filed as Kd, often an IC50 or EC50 that approximates it; ≥ and ≤ were set here for values at or beyond the usual limits of such assays. The following applies: source organism: Vaccinia virus WR.
Another test addresses HLA-A*31:01. Described as above. The settings on record: source organism: Vaccinia virus WR.
The target of the next test is HLA-A*33:01. The description is as above. The following applies: source organism: Vaccinia virus WR.
Another test addresses HLA-A*24:02. Kind of test: IEDB peptide-MHC binding, purified MHC/competitive/fluorescence; ≥ and ≤ were set here for values at or beyond the usual limits of such assays. The settings on record: source organism: Zaire ebolavirus.
For another test, the target named is HLA-A*02:01. The description is as above. The following applies: source organism: Zaire ebolavirus.
For another test, the target named is HLA-B*39:01. Kind of test: IEDB peptide-MHC binding, purified MHC/competitive/fluorescence; filed as Kd, often an IC50 or EC50 that approximates it; ≥ and ≤ were set here for values at or beyond the usual limits of such assays. The following applies: source organism: Escherichia coli str. K-12 substr. MG1655.
Another test has as its target HLA-B*58:01. Described as above. The settings on record: source organism: Escherichia coli str. K-12 substr. MG1655.
The next test has as its target HLA-C*05:01. Briefly: IEDB peptide-MHC binding, purified MHC/direct/fluorescence; filed as Kd, often an IC50 or EC50 that approximates it; ≥ and ≤ were set here for values at or beyond the usual limits of such assays.
The next test deals with HLA-C*03:03. Described as above. The settings on record: source organism: Escherichia coli str. K-12 substr. MG1655.
For another test, the target named is HLA-C*07:02. The description is as above. The following applies: source organism: Mycobacterium tuberculosis variant bovis BCG str. Pasteur 1173P2.
The target in another test is HLA-A*02:11. The test is described as above. The following applies: source organism: Mycobacterium tuberculosis str. Haarlem.
The target in a further test is HLA-A*69:01. The test is described as above. The following applies: source organism: Mycobacterium tuberculosis.
The next test addresses HLA-C*06:02. The test is described as above. The following applies: source organism: Mycobacterium tuberculosis variant bovis BCG str. Pasteur 1173P2.
For another test, the target named is HLA-A*02:03. The description is as above. The settings on record: source organism: Mycobacterium tuberculosis str. Haarlem.
The target in another test is HLA-A*29:02. Kind of test: IEDB peptide-MHC binding, purified MHC/competitive/fluorescence; filed as Kd, often an IC50 or EC50 that approximates it; ≥ and ≤ were set here for values at or beyond the usual limits of such assays. The following applies: source organism: Mycosarcoma maydis.
[1] abbreviates: source organism: Mycobacterium tuberculosis str. Haarlem.
Where [2] appears, read: source organism: Vaccinia virus Copenhagen.
[3] abbreviates: source organism: Zaire ebolavirus.
The mark [4] stands for this setting: source organism: Escherichia coli str. K-12 substr. MG1655.
[5] abbreviates: source organism: Mycobacterium tuberculosis variant bovis BCG str. Pasteur 1173P2.
[6] abbreviates: source organism: Mycosarcoma maydis.

As a reminder, the Kd is a measure of binding affinity in units of concentration. In the case of YTPEQWWPF, the dissociation constant Kd was no less than 5 µM with HLA-B*15:42 (setting [1]); 0.0382 µM with HLA-A*32:15 (setting [1]); no less than 5 µM with HLA-B*45:06 (setting [1]); no less than 5 µM with HLA-C*04:01 (setting [1]); 0.0229 µM with HLA-A*32:07 (setting [1]); no less than 5 µM with HLA-B*83:01 (setting [1]). For the same sequence, the Kd was no less than 20 µM with HLA-C*08:02, 0.0114 µM in the test with HLA-A*26:01, 0.969 µM with HLA-C*14:02 (setting [1]) and no less than 20 µM with HLA-C*15:02 (setting [1]).
As a reminder, the IC50 is the midpoint of a concentration-inhibition curve. A lower IC50 goes with inhibition by little substance. As for KSNAKCIEY, the 50% inhibitory concentration (IC50) came to 16.5 µM with HLA-A*03:01, 21.7 µM with HLA-A*11:01 (setting [2]), 41.8 µM in the test with HLA-A*01:01 (setting [2]) and 18.2 µM with HLA-B*15:01. For the same sequence, the values for the Kd in the test with HLA-A*68:01, with HLA-A*31:01 and with HLA-A*33:01 were no less than 24.7 µM, 0.347 µM and no less than 25.8 µM, respectively.
Consider ITDKIDQII, for which the IC50 came to 8.7 µM with HLA-A*24:02, 39.2 µM in the test with HLA-A*11:01 (setting [3]), 5.95 µM in the test with HLA-A*01:01 (setting [3]) and 5.02 µM in the test with HLA-A*02:01.
For the sequence AAAVAYPEL, the Kd was no less than 20 µM with HLA-B*39:01; no less than 20 µM in the test with HLA-B*58:01; no less than 20 µM in the test with HLA-C*05:01 (setting [4]); 2.99 µM in the test with HLA-C*14:02 (setting [4]); 0.002 µM with HLA-C*03:03.
Take YMLDMTFPV: the dissociation constant (Kd) in the test with HLA-C*05:01 (setting [5]) was 3.43 µM; with HLA-C*07:02, 0.651 µM; with HLA-A*02:11, no more than 0.001 µM; with HLA-C*14:02 (setting [5]), 0.076 µM; in the test with HLA-A*69:01, no more than 0.001 µM; in the test with HLA-C*06:02, no less than 20 µM. The Kd is no more than 0.001 µM in the test with HLA-A*02:03 and 0.407 µM with HLA-C*15:02 (setting [5]).
In the case of IPVHPRHPY, the Kd is no less than 5 µM with HLA-B*15:42 (setting [6]); 1.43 µM with HLA-A*32:15 (setting [6]); no less than 5 µM in the test with HLA-B*45:06 (setting [6]); 0.938 µM with HLA-A*29:02; no less than 5 µM in the test with HLA-C*04:01 (setting [6]); 0.393 µM in the test with HLA-A*32:07 (setting [6]). In addition, the Kd in the test with HLA-B*83:01 (setting [6]) was determined as 0.222 µM.
